From US20240417754

Tested on: T1, Pf80 large serine recombinase
T1 sequence: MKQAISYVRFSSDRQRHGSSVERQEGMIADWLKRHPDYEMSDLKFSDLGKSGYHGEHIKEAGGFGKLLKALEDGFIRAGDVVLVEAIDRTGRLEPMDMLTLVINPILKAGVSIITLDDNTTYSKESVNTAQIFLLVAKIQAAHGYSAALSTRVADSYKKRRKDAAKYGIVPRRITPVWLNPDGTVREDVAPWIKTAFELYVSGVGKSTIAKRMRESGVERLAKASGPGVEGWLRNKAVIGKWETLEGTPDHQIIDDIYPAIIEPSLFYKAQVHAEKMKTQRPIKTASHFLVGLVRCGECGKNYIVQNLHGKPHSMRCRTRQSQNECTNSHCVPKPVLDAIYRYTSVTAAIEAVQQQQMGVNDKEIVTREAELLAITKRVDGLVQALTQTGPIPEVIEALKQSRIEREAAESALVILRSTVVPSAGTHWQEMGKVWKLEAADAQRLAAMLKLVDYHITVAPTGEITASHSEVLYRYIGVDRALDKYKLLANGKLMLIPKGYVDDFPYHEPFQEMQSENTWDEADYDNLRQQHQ
Test: cell_activity
Settings: share of unique integration reads at predicted site

Pf80 attH (FKBP2 exon)
on-target integration read share: 34.3%
